Test results taken from article PMC8575462, “PP2A/B55α substrate recruitment as defined by the retinoblastoma-related protein p107” (eLife, 2021).

B1: GST-p107 R1R2 [not stated] / B55α (PP2A regulatory subunit B55α), endogenous in U-2 OS cells [human (endogenous in U-2 OS)] (parent)
chain 1: KVPTCEEVIFPNNFETGNGGNVQGHLPLMPMSPLMHPRVKEVRTDSGSLRRDMQPLSPISVHERYSSPTAGSAKRRLF
chain 2: MAGAGGGNDIQWCFSQVKGAVDDDVAEADIISTVEFNHSGELLATGDKGGRVVIFQQEQENKIQSHSRGEYNVYSTFQSHEPEFDYLKSLEIEEKINKIRWLPQKNAAQFLLSTNDKTIKLWKISERDKRPEGYNLKEEDGRYRDPTTVTTLRVPVFRPMDLMVEASPRRIFANAHTYHINSISINSDYETYLSADDLRINLWHLEITDRSFNIVDIKPANMEELTEVITAAEFHPNSCNTFVYSSSKGTIRLCDMRASALCDRHSKLFEEPEDPSNRSFFSEIISSISDVKFSHSGRYMMTRDYLSVKIWDLNMENRPVETYQVHEYLRSKLCSLYENDCIFDKFECCWNGSDSVVMTGSYNNFFRMFDRNTKRDITLEASRENNKPRTVLKPRKVCASGKRKKDEISVDSLDFNKKILHTAWHPKENIIAVATTNNLYIFQDKVN

Variants of: B1
Assay: GST pull-down, western blot
Settings: with B55α (PP2A regulatory subunit B55α), U2-OS lysates, triplicate, read off a plot

| Variant | ratio to parent |
| --- | --- |
| chain 1 KVPTCEEVIFPNNFETGNGGNVQGHLPLMPMSPLMHPRVKEVRTDSGSLRRDMQPLSPISVHEAYSSPTAGSAKRRLF [chain 1 R64A] | 0.57 |
